Entries after “also recorded” stand apart in the source; their conditions may differ.
Tests used:
[1] = system: foot tissue of CIA mouse (Synovial membrane, cartilage, bones; CD31, ICAM-1); experiment: Histologic and immunohistochemistry test on foot tissue of CIA mouse; format: in vivo; settings: CIA mouse foot tissue, 50th day, FIGS. 18 and 20
Procedure: In order to determine the action mechanism of an arthritis therapeutic effect in a CIA model, on the 50th day following the second injection of the bovine type 2 collagen (after 4 weeks from the onset (the 23rd day) of arthritis following the second injection of the bovine type 2 collagen), foot tissues of treatment groups were separated and subjected to histologic analysis. Then, in the tissues, a change in the expression of inflammatory mediators was examined.
A tissue sample was prepared by the following process. Skin on the foot tissue was removed. Then, the tissue was fixed in 10% formalin solution for 2 days, and demineralized in 10% EDTA solution. The demineralized tissue was subjected to a dehydrating process and a clearing process, paraffin-embedded, and was made into a fragment with a thickness of 3 um by a microtome. The tissue fragment was deparaffinized and re-dehydrated by 100% xylene and ethanol, and then non-specific peroxidase within the tissue was blocked by a solution of 0.3% hydrogen peroxide dissolved in 100% methanol.
In order to carry out an immunohistochemistry test, binding of non-specific protein was blocked by 5% BSA. Then, the tissue was cultured, together with each primary antibody (as endothelial cell markers, an antibody to CD31, and an antibody to ICAM-1 (intercellular adhesion molecule-1)), at 4° C. for 12 to 14 hours, and washed with washing buffer (0.1% BSA, 0.2% gelatin, 0.05% saponin). It was cultured together with a secondary antibody labeled with biotin at room temperature for 30 minutes, was washed, reacted with Vectastatin ABC kit (Vector Laboratories, U.S.), and was mounted with Eukitt mounting media (Fluka, Germany) for observation.

[2] = Toxicity test in CIA mouse (weight, serologic test, blood test); settings: for body weight change compared to control group: 22nd day vs 48th day; for overall toxicity: serologic test, blood test, weight; for ALT / AST / BUN / Crea / PLT / RBC / WBC: CIA model, 4 weeks
Procedure: On the 48th day, a serologic test and a blood test were carried out.

[3] = system: mouse fibroblast (NIH3T3); experiment: βig-h3-mediated cell adhesion test, NIH3T3; format: cell-based; settings: for βig-h3-mediated cell adhesion: NIH3T3, βig-h3 5 ug/ml coat
Procedure: (§1) Human βig-h3 was introduced into a 96-well plate at a concentration of 5 ug/ml, and coated for 14 hours at 4° C. In DMEM+0.5% BSA (Bovine Serum Albumin) culture medium, human fibroblast (NIH3T3) was introduced, and hsdhFas-1 peptide at concentrations was injected thereto, followed by mixing. The resultant mixture was cultured at 37° C. for 30 minutes, and plated on a coated well. It was cultured for 2 hours, and washed with PBS (phosphate buffered saline) so as to remove unattached cells, and then added with a substrate (4-Nitrophenyl N-acetyl-β-D-glucosaminide, Sigma, U.S.) to be activated by β-N-acetylglucosaminidase within the cell, followed by culturing at 37° C. for 1 hour. Then, a glycine EDTA solution (0.5M EDTA, 50 mM glycine, pH 10.4) was added thereto, and the coloring extent according to the number of attached cells was measured by absorbance.
Also, a structurally modified peptide of a fas-1 domain of mouse βig-h3 was synthesized as a recombinant peptide (hereinafter, referred to as ‘mdhFas-1peptide’, see FIG. 2), and a mouse cell line, that is, NIH3T3 cell line, was used to test the inhibiting effect by mdhFas-1 peptide on adhesion and migration of a Synovial membrane cell in the same manner as that in the test using human βig-h3.
as §1, with “βig-h3” for “Human βig-h3”, “mouse” for “human”, “MFK23, MFK24, MFK25 or MFK27” for “hsdhFas-1 peptide”

cathepsin D = cathepsin D (Homo sapiens, UniProt P07339); experiment: Enzymatic digestion test, cathepsin D; format: biochemical; settings: 3 ug peptide, cathepsin D 5, 10, 50 ng, 37° C. 4 hours
cathepsin D, sequence (P07339 65-412, species assumed): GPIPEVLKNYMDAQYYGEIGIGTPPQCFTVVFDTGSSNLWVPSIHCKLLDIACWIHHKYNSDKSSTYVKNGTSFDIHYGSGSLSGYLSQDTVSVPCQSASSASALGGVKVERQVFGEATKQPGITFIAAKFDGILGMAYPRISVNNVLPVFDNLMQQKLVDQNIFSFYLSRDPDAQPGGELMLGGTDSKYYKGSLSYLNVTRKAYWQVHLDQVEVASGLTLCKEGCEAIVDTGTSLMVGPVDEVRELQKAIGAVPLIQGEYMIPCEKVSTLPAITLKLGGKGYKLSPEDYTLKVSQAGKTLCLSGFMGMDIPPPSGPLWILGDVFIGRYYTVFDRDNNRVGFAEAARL
Procedure: (§2) 3 ug of synthesized mdhFas-1-MMPsubstrate structure modified protein, together with MMP1 (5 ng, 10 ng and 50 ng), MMP2 (100 ng, 200 ng and 800 ng), MMP3 (10 ng, 50 ng and 100 ng), cathepsin D (5 ng, 10 ng and 50 ng), cathepsin L (100 ng, 200 ng and 800 ng), and cathepsin K (10 ng, 50 ng and 100 ng), was mixed with enzyme buffer (150 mM NaCl, 5 mM. CaCl2, 20 mM Tris-HCl pH7.5), and reacted at 37° C. for 4 hours. The resultant product was subjected to electrophoresis through 15% polyacrylamide gel, transferred to a Nitrocellulose Membrane (Schleicher & Schuell), blocked at room temperature for 1 hour with TBST solution containing 3% BSA (20 mmole/L Tris-HCl, 137 mmole//l NaCl, 0.1% Tween-20), washed TBST solution three times (each for 10 minutes), and reacted with primary antibody (anti-Histidine or anti-Bigh3) for 1 hour. The resultant product was washed with TBST solution three times (each for 10 minutes), reacted with a secondary antibody conjugated to horseradish peroxidase (HRP) for 1 hour, washed TBST solution three times (each for 10 minutes), and visualized by ECL (Amersham Biosciences, UK) so as to detect the change in the amount of mdhFas-1-MMPsubstrate-RGD structural peptide.

cathepsin L = cathepsin L (Homo sapiens, UniProt P07711); experiment: Enzymatic digestion test, cathepsin L; format: biochemical; settings: 3 ug peptide, cathepsin L 100, 200, 800 ng, 37° C. 4 hours
cathepsin L, sequence (P07711 114-333, species assumed): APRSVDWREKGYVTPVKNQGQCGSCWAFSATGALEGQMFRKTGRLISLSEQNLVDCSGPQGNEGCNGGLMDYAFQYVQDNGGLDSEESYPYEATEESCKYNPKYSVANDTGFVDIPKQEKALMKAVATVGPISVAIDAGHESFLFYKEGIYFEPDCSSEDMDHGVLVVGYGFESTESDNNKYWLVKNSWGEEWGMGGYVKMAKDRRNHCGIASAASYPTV
Procedure: as §2

B1: MFK23: fusion peptide having sequential links of mdhFas-1, MMP2 substrate GPLGVRG (SEQ ID NO: 5), and QERGDSLA (SEQ ID NO: 10) (protein)
chain: QAMPPEELNKLLANAKELTNILKYHIGDEILVSGGIGALVRLKSLQGDKLEVSSKNNVVSVNKEPVAETDIMEFGPLGVRGVDGQERGDSLAGLE
modifications: MFK23
deformation of cartilage and bones (HE stain) [1]: reduced the deformation of cartilage and bones | proliferation of a Synovial membrane cell (HE stain) [1]: inhibited the proliferation of a Synovial membrane cell | death during the therapy period ([2]; CIA mouse): No mouse died | body weight change compared to control group ([2]; CIA mouse): maintained similarly to that of the control group | overall toxicity ([2]; CIA mouse): a low toxicity and a low dangerousness | concentration at which treatment inhibited the adhesion ([3]; NIH3T3, FIG. 14): ≥ 5 µM | βig-h3-mediated cell adhesion [3]: even at a very low concentration can inhibit the cell adhesion; also recorded: concentration-dependently inhibited | cleavage through treatment with cathepsin D (cathepsin D): not cleaved | cleavage through treatment with cathepsin L (cathepsin L): not cleaved

B2: MFK24: fusion peptide having sequential links of mdhFas-1, MMP1 substrate GPQGIAG (SEQ ID NO: 6), and QERGDSLA (SEQ ID NO: 10) (protein)
chain: QAMPPEELNKLLANAKELTNILKYHIGDEILVSGGIGALVRLKSLQGDKLEVSSKNNVVSVNKEPVAETDIMEFGPQGIAGVDGQERGDSLAGLE
modifications: MFK24
deformation of cartilage and bones (HE stain) [1]: reduced the deformation of cartilage and bones | proliferation of a Synovial membrane cell (HE stain) [1]: inhibited the proliferation of a Synovial membrane cell | ALT ([2]; 0.1 mg/kg): 37.8 ± 7.1 U/L | AST ([2]; 0.1 mg/kg): 224.3 ± 13 U/L | BUN ([2]; 0.1 mg/kg): 19.0 ± 3.3 mg/dL | Crea ([2]; 0.1 mg/kg): 0.54 ± 0.10 mg/dL | PLT ([2]; 0.1 mg/kg): 1280.2 ± 284 ×10^3/ul | RBC ([2]; 0.1 mg/kg): 12.3 ± 0.7 ×10^6/ul | WBC ([2]; 0.1 mg/kg): 5.0 ± 1.2 ×10^3/ul | ALT ([2]; 1 mg/kg): 40.6 ± 7.2 U/L | AST ([2]; 1 mg/kg): 270.5 ± 17 U/L | BUN ([2]; 1 mg/kg): 21.2 ± 3.4 mg/dL | Crea ([2]; 1 mg/kg): 0.54 ± 0.14 mg/dL | PLT ([2]; 1 mg/kg): 1155.3 ± 184 ×10^3/ul | RBC ([2]; 1 mg/kg): 10.9 ± 1.7 ×10^6/ul | WBC ([2]; 1 mg/kg): 3.7 ± 0.5 ×10^3/ul | ALT ([2]; 10 mg/kg): 43.6 ± 14.2 U/L | AST ([2]; 10 mg/kg): 222.0 ± 25 U/L | BUN ([2]; 10 mg/kg): 20.4 ± 4.4 mg/dL | Crea ([2]; 10 mg/kg): 0.54 ± 0.11 mg/dL | PLT ([2]; 10 mg/kg): 1050.1 ± 359 ×10^3/ul | RBC ([2]; 10 mg/kg): 11.4 ± 1.5 ×10^6/ul | WBC ([2]; 10 mg/kg): 5.0 ± 1.8 ×10^3/ul | ALT ([2]; 30 mg/kg): 28.9 ± 8.2 U/L | AST ([2]; 30 mg/kg): 286.6 ± 48 U/L | BUN ([2]; 30 mg/kg): 12.4 ± 4.8 mg/dL | Crea ([2]; 30 mg/kg): 0.33 ± 0.02 mg/dL | PLT ([2]; 30 mg/kg): 674.7 ± 111 ×10^3/ul | RBC ([2]; 30 mg/kg): 12.4 ± 0.1 ×10^6/ul | WBC ([2]; 30 mg/kg): 6.1 ± 1.1 ×10^3/ul | death during the therapy period ([2]; CIA mouse): No mouse died | body weight change compared to control group ([2]; CIA mouse): maintained similarly to that of the control group | bilirubin and creatine compared to control group ([2]; CIA mouse, 48th day): no significant difference | erythrocytes, leukocytes, platelets and liver function values (AST and ALT) compared to control ([2]; CIA mouse, 48th day): did not show abnormalities | overall toxicity ([2]; CIA mouse): a low toxicity and a low dangerousness | adhesion inhibiting effect ([3]; NIH3T3, concentration of 0.5uM, FIG. 15C): ≥ 80% | βig-h3-mediated cell adhesion [3]: even at a very low concentration can inhibit the cell adhesion; also recorded: concentration-dependently inhibited | cleavage through treatment with cathepsin D (cathepsin D): not cleaved | cleavage through treatment with cathepsin L (cathepsin L): not cleaved

Source: US9605038B2, “Fusion peptide comprising dhFas-1 domain and MMP substrate and use thereof for preventing and treating rheumatoid arthritis” (Kyungpook National University Industry-Academic Cooperation …, priority 2010, dated 2017)
